T1: FcγRIIa R (human, UniProt P12318 34-217)
T1 construct: extracellular domain; Soluble extracellular domain with C-terminal His tag, expressed in FreeStyle293 cells; also called FcgRIIa R; FcγRIIa type R; not shown: His tag attached to the C terminus
T1 sequence (looked up): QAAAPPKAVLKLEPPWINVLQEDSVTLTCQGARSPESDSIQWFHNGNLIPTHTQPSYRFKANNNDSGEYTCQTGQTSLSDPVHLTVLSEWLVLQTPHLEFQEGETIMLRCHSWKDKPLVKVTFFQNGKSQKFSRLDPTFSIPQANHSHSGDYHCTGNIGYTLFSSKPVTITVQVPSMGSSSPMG

B1: GpH7-B3 variant L328_04F/GpL16-k0 (antibody, human IgG1, kappa)
heavy: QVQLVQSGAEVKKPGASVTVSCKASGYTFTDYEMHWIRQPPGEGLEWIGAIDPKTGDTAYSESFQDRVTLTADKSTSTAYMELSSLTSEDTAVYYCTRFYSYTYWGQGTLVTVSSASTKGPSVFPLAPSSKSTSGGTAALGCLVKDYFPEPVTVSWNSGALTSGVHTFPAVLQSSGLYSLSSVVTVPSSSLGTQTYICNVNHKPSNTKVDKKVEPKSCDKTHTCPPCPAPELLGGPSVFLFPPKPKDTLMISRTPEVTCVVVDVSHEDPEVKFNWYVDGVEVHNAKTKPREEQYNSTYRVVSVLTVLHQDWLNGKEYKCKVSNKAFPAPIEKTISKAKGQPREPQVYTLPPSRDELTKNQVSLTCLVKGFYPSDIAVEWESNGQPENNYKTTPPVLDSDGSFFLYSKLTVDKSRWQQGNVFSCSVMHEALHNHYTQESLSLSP
light: DIVMTQSPLSLPVTPGEPASISCQASESLVHSNRNTYLHWYLQKPGQSPQLLIYKVSNRFSGVPDRFSGSGSGTDFTLKISRVEAEDVGVYYCSQNTHVPPTFGQGTKVEIERTVAAPSVFIFPPSDEQLKSGTASVVCLLNNFYPREAKVQWKVDNALQSGNSQESVTEQDSKDSTYSLSSTLTLSKADYEKHKVYACEVTHQGLSSPVTKSFNRGEC
notes: homodimerized; mutation in both H chains; also called Ho Ab
B2: GpH7-B3 variant K326_19Q/GpL16-k0 (antibody, human IgG1, kappa)
heavy: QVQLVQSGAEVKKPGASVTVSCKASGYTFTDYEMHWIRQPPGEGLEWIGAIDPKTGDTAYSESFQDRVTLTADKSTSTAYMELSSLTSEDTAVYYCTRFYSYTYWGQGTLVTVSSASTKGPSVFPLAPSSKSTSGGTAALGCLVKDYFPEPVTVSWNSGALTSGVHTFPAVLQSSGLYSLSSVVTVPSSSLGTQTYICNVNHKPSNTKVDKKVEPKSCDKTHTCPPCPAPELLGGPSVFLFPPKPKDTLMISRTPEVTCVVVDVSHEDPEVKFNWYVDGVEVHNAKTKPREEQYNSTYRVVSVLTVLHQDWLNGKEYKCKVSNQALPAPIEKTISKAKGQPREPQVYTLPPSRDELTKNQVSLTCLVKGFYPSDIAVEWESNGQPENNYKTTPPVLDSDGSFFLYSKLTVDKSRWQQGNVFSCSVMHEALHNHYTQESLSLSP
light: B1 light
notes: as for B1
B3: GpH7-B3 variant S239_01G/GpL16-k0 (antibody, human IgG1, kappa)
heavy: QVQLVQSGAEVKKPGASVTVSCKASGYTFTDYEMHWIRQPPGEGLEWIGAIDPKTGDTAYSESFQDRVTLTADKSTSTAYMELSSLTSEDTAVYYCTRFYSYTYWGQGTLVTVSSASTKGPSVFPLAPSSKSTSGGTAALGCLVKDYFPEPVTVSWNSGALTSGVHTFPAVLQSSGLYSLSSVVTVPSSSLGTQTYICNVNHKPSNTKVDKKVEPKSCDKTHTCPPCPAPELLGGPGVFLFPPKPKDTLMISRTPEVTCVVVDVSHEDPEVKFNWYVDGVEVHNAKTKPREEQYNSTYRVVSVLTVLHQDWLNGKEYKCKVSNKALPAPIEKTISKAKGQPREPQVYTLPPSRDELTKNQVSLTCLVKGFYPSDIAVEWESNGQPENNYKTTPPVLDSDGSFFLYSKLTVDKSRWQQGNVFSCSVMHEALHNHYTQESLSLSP
light: B1 light
notes: as for B1
B4: GpH7-B3 variant K326_14T/GpL16-k0 (antibody, human IgG1, kappa)
heavy: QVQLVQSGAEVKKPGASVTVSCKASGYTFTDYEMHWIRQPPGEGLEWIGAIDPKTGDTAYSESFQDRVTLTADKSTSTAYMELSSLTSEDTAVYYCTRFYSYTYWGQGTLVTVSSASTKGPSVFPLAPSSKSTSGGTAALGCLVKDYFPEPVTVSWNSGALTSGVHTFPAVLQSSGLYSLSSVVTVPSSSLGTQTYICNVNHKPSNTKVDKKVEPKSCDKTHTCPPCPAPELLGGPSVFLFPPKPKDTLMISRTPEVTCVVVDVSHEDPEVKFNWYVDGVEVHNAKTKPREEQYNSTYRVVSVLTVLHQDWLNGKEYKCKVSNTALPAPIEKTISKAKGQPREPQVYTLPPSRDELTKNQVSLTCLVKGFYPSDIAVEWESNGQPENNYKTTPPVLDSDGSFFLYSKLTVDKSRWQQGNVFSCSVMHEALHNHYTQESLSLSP
light: B1 light
notes: as for B1
B5: GpH7-B3 variant T335_20W/GpL16-k0 (antibody, human IgG1, kappa)
heavy: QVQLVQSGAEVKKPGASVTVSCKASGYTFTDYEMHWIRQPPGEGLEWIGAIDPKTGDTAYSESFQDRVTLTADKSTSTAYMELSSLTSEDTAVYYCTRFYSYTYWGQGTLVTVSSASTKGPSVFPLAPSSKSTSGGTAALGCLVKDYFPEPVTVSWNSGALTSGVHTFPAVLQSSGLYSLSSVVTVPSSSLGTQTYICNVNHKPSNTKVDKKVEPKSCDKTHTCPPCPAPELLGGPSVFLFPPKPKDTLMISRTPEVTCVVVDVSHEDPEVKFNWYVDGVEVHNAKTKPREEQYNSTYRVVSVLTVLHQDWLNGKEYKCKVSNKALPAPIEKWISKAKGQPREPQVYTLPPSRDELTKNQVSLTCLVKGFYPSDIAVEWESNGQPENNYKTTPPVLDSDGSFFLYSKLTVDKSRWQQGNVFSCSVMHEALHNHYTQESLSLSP
light: B1 light
notes: as for B1
B6: GpH7-B3 variant L328_07I/GpL16-k0 (antibody, human IgG1, kappa)
heavy: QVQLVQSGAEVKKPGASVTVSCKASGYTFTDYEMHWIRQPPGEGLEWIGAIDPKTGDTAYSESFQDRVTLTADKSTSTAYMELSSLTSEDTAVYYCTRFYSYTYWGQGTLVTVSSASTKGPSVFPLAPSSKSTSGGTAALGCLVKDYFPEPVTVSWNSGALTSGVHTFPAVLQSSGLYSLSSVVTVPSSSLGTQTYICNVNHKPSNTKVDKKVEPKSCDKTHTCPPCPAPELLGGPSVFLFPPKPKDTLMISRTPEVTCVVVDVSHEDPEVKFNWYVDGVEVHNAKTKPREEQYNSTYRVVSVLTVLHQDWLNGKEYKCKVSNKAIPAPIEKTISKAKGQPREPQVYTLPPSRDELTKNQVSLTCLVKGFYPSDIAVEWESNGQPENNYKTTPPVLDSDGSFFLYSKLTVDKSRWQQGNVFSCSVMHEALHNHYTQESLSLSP
light: B1 light
notes: as for B1
B7: GpH7-B3 variant S337_14T/GpL16-k0 (antibody, human IgG1, kappa)
heavy: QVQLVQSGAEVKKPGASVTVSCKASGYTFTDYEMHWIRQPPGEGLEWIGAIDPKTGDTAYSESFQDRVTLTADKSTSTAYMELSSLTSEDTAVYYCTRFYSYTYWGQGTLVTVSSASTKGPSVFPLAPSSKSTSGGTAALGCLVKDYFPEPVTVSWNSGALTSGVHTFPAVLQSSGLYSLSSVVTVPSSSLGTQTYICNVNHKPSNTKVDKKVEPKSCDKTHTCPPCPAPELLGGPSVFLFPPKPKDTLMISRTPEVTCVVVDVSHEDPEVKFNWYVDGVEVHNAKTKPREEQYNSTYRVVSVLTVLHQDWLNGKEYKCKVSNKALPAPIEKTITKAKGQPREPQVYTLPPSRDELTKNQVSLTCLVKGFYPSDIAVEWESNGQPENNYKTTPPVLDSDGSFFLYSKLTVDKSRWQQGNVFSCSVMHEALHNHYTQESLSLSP
light: B1 light
notes: as for B1
B8: GpH7-B3 variant K334_03V/GpL16-k0 (antibody, human IgG1, kappa)
heavy: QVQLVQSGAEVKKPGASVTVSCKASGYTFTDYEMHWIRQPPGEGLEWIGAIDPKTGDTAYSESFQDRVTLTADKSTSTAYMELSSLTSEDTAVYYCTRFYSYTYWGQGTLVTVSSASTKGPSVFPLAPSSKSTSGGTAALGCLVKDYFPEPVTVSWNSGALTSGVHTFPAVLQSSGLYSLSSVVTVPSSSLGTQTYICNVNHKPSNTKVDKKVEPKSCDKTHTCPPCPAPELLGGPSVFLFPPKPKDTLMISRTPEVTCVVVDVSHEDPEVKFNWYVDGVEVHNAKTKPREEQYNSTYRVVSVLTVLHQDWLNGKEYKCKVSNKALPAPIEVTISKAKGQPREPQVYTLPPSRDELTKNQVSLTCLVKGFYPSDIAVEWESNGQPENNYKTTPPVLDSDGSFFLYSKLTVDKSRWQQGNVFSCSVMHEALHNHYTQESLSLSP
light: B1 light
notes: as for B1
B9: GpH7-A5/GpH7-B3 variant T335_15Y/GpL16-k0 (antibody, human IgG1, kappa)
heavy 1: not shown
heavy 2: not shown
light: B1 light
notes: heterodimerized; mutation in one H chain only; also called He Ab
B10: GpH7-A5/GpH7-B3 variant G236_09D/GpL16-k0 (antibody, human IgG1, kappa)
heavy 1: not shown
heavy 2: not shown
light: B1 light
notes: as for B9
B11: GpH7-A5/GpH7-B3 variant K326_14T/GpL16-k0 (antibody, human IgG1, kappa)
heavy 1: not shown
heavy 2: not shown
light: B1 light
notes: as for B9
B12: GpH7-A5/GpH7-B3 variant H268_13S/GpL16-k0 (antibody, human IgG1, kappa)
heavy 1: not shown
heavy 2: not shown
light: B1 light
notes: as for B9
B13: GpH7-A5/GpH7-B3 variant K326_09D/GpL16-k0 (antibody, human IgG1, kappa)
heavy 1: not shown
heavy 2: not shown
light: B1 light
notes: as for B9
B14: GpH7-A5/GpH7-B3 variant I332_10E/GpL16-k0 (antibody, human IgG1, kappa)
heavy 1: not shown
heavy 2: not shown
light: B1 light
notes: as for B9
B15: GpH7-A5/GpH7-B3 variant K326_06M/GpL16-k0 (antibody, human IgG1, kappa)
heavy 1: not shown
heavy 2: not shown
light: B1 light
notes: as for B9
B16: GpH7-A5/GpH7-B3 variant I332_04F/GpL16-k0 (antibody, human IgG1, kappa)
heavy 1: not shown
heavy 2: not shown
light: B1 light
notes: as for B9
B17: GpH7-A5/GpH7-B3 variant K326_19Q/GpL16-k0 (antibody, human IgG1, kappa)
heavy 1: not shown
heavy 2: not shown
light: B1 light
notes: as for B9
B18: GpH7-A5/GpH7-B3 variant H268_18N/GpL16-k0 (antibody, human IgG1, kappa)
heavy 1: not shown
heavy 2: not shown
light: B1 light
notes: as for B9
B19: GpH7-A5/GpH7-B3 variant G236_10E/GpL16-k0 (antibody, human IgG1, kappa)
heavy 1: not shown
heavy 2: not shown
light: B1 light
notes: as for B9
B20: GpH7-A5/GpH7-B3 variant K326_10E/GpL16-k0 (antibody, human IgG1, kappa)
heavy 1: not shown
heavy 2: not shown
light: B1 light
notes: as for B9
B21: GpH7-A5/GpH7-B3 variant H268_10E/GpL16-k0 (antibody, human IgG1, kappa)
heavy 1: not shown
heavy 2: not shown
light: B1 light
notes: as for B9
B22: GpH7-A5/GpH7-B3 variant I332_15Y/GpL16-k0 (antibody, human IgG1, kappa)
heavy 1: not shown
heavy 2: not shown
light: B1 light
notes: as for B9
B23: GpH7-A5/GpH7-B3 variant K326_16H/GpL16-k0 (antibody, human IgG1, kappa)
heavy 1: not shown
heavy 2: not shown
light: B1 light
notes: as for B9
B24: GpH7-A5/GpH7-B3 variant I332_09D/GpL16-k0 (antibody, human IgG1, kappa)
heavy 1: not shown
heavy 2: not shown
light: B1 light
notes: as for B9
B25: GpH7-A5/GpH7-B3 variant H268_09D/GpL16-k0 (antibody, human IgG1, kappa)
heavy 1: not shown
heavy 2: not shown
light: B1 light
notes: as for B9

For one experiment, the target named is T1, FcγRIIa R. Briefly: SPR (Biacore), antibody captured via antigen peptide, FcγRIIa R as analyte; homodimerized antibody. The method, then:
(§1) Analysis of interaction between objective antibody and the FcγR was carried out using Biacore T100 (GE Healthcare). HBS-EP+ (GE Healthcare) was used as the running buffer, and the measurement temperature was set to 25° C. Chips produced by immobilizing the antigen peptide by the amine coupling method to a Series S Sencor Chip CM5 (GE Healthcare), or alternatively, chips produced by allowing preliminarily biotinylated antigen peptides to interact with and immobilize onto a Series S Sensor Chip SA (certified) (GE Healthcare) were used. Antibodies of interest were captured onto an antigen peptide-immobilized chip, and allowed to interact to each FcγR diluted with running buffer. To regenerate and repeatedly use the chip, the antibodies captured on the chip were washed off by reacting 10 mM glycine-HCl, pH 1.5.
On the technique in general: In SPR one partner is held on a chip, and binding of the other changes the refractive index at the surface.
For the molecule B1, the Ho/Con_2aR was 145 % of control (GpH7-B3/GpL16-k0 = 100). The same measure, in the same setting: the same measure for B2: 137 % of control (GpH7-B3/GpL16-k0 = 100). As for B3, the Ho/Con_2aR was 132 % of control (GpH7-B3/GpL16-k0 = 100). On the same count and under the same terms, the same measure for B4: 141 % of control (GpH7-B3/GpL16-k0 = 100); for B5: 101 % of control (GpH7-B3/GpL16-k0 = 100).

Consider B6, for which the Ho/Con_2aR is 140 % of control (GpH7-B3/GpL16-k0 = 100).

With B7, the Ho/Con_2aR was 110 % of control (GpH7-B3/GpL16-k0 = 100). On the same count and under the same terms, the same measure for B8: 123 % of control (GpH7-B3/GpL16-k0 = 100).

The target of a further experiment is T1, FcγRIIa R. Briefly: SPR (Biacore), antibody captured via antigen peptide, FcγRIIa R as analyte; heterodimerized antibody. The method, then:
as §1
For B9, the He/Con_2aR was 111 % of control (GpH7-A5/GpH7-B3/GpL16-k0 = 100).

Consider B10, for which the He/Con_2aR was 106 % of control (GpH7-A5/GpH7-B3/GpL16-k0 = 100). With B11, the He/Con_2aR is 134 % of control (GpH7-A5/GpH7-B3/GpL16-k0 = 100). On the same count and under the same terms, the result for B12 reads 127 % of control (GpH7-A5/GpH7-B3/GpL16-k0 = 100); that for B13, 148 % of control (GpH7-A5/GpH7-B3/GpL16-k0 = 100); that for B14, 114 % of control (GpH7-A5/GpH7-B3/GpL16-k0 = 100). Consider B15, for which the He/Con_2aR is 138 % of control (GpH7-A5/GpH7-B3/GpL16-k0 = 100). In the case of B16, the He/Con_2aR was 105 % of control (GpH7-A5/GpH7-B3/GpL16-k0 = 100). On to B17, for which the He/Con_2aR is 129 % of control (GpH7-A5/GpH7-B3/GpL16-k0 = 100).

With B18, the He/Con_2aR is 128 % of control (GpH7-A5/GpH7-B3/GpL16-k0 = 100). The same measure, in the same setting: the same measure for B19: 125 % of control (GpH7-A5/GpH7-B3/GpL16-k0 = 100); for B20: 148 % of control (GpH7-A5/GpH7-B3/GpL16-k0 = 100). In the case of B21, the He/Con_2aR is 148 % of control (GpH7-A5/GpH7-B3/GpL16-k0 = 100). Still for that read-out and setting: the same measure for B22: 110 % of control (GpH7-A5/GpH7-B3/GpL16-k0 = 100); for B23: 120 % of control (GpH7-A5/GpH7-B3/GpL16-k0 = 100); for B24: 119 % of control (GpH7-A5/GpH7-B3/GpL16-k0 = 100). As for B25, the He/Con_2aR was 149 % of control (GpH7-A5/GpH7-B3/GpL16-k0 = 100).

Values taken from patent publication US20180155451A1 (published 2018).
